A short description of the data set: label from the status in PepcDB records.
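Further: failed if final PepcDB status was selected cloned or expressed and not failed if soluble or beyond.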

Consider “MGSSSRQGWRSVFKDVTQKWDVMTVEEQEKELSLLEEWTERVLEEWSDMHEACMTLRERQQQSSVLEKYPPYVSKGTALYDLEMFPEAAMQFDRELKMQPHMHHPLLHLYAIFANLYGGQRERCKEHCVYVLTTSVDRLVRYFTYMALGTLYMQEGEVEEALTSYEHASKLTFHPDVMYNLGMAYFLQHQYALAIPCFMEVIKDGEEDVDALYFLGCALCESGYVEEGCAKWLEAIQLCPPEKVLLTIGAKLEWYGFHQAAVHCFEQLLQSRQLRHLAKHGIAWNLALQDEREKAIHMLKELIAVPQIREDVRLSIEFLAHCWNDGNLRQLAASIERG”, for which the protein production entry is “failed”.

Take “MGSTTGSMLTAISDTHGTDNHRLTGRTLDAVREADHVLHAGDFMTEQVLDAIDAESDELTGVVGNNDRPAVRARLSDVATVSWEELTIVVVHGHEHTETALGMLARQENADIVVVGHSHKPVLTDFGGWTLVNPGSYADPRRYQPAHAELDVMAGDVRVRLRSPDGTPISTTIVERLEHHHHHH”: the protein production entry was “failed”. With “MGSVAARDYVGIATKYAEAAVADKGRKRHGRWIRLAAKRFLDDLKRARRRGTPFFFDEWHANDACDFIEKLPHVEGKWETPTIVMHPSHVFFVVQLFGFRRRDAIKVEGWGDDDTFHPRRFTSALFAVARKNAKSTLASAILLYCLCCEPEEGAQVISAATTFDQASIIFRASKRMVEKTPDLAEAFGLATWAKSISRFETGSSYKAVHAKASTQDGLNPSHTGLDEIHAHKTADLLNVLQSAAGARANPLWLFTTTEGYTNAGPWAEIRGFVFALLRGVLGTQADHFLALFYALDNEDKSAKITQDDEFDESKWIKANPLLDVNPHLKAAIRKEAVEAKQMPSKLAEFRIKRCNRPASTASGWVDLTKWAKCGGAVDLDWLAGYPCWGGLDLASTTDIAAFRLLWLVEGVWYTHGWRWVPSEAVKQRTERATVPYAGWVEAGYLLQTEGDVTDYSVIERDILAAVQRFDPQQIAYDAWNAADLVNRLVAASVPMVQFVQGTKSYHPAMQALELAYVGGKLVHGGDPVLAWCASNLVARRDVNLSMAPDRKRSADKIDDMAALLMAMGLAVASDDAEDLSDFFNNAVIGLEHHHHHH” the entry was “not failed”; with “MGSVVHAEITEIKPFELRVNFGNSFRGRIHITEVLVNDASTSDEPFAKFRVGQSISARVVAKPCHTDIKKTQLWELSVKP”, “not failed”; with “MGTHIKNQYISPPNTVYDCSIVKLPKIENRSGNITPIHSWVNIPFQIKRIFYSYDIPGGESRGAHAHKKCHQFLIAASGSFEVVLDDGISKRTVLLNRPFYGLHIPPGIWASEQGFSSGSVCLVLASHVYEEDDYLRDYQGFLNYKSQGIFEMFINVNGGGVSPKIFYLPFLFTKSKEEVA”, “failed”. With “MGTIESYLTNSYNYIIFNFKKLCIGGLMSAIVGAMSGVTTAFIDLFMERANYDIMHIIMSFLIYFGIIFIIGLIVSAIIGGYNVRIMKTTVEGLNVAPDWNNITDLLYRGILYIVGLVLLNIIFYFIPAILFVFGIFSLYISKIIGAFLIIISILIFIISVISLWLYSKLAEVNYSVKGFYGFFEFKEIFKMIGIRYIILVIIIAIINFIISLIVVLPLNIIDIFISYSALANSILTIIYISIKGISYALSTFVDFYLGVFSIRAVALYYKDRKGIT” the entry was “failed”; with “MGTIGKKAAKGASVKFSESSTQAVIKATYLQVFGRDVYEGQRLKVQEIKLENGEISVRDFVRALAKSDLFRKLYWTPFYVCKAIEYIHRRLLGRPTYGRQENNKYFDIASKKGLYAVVDAILDSLEYTETFGEDTVPYERYLTPAGLEHHHHHH”, “not failed”. As to “MGTIILTWNIQWGRGADGRVDLSRMLAEARAMGSFDVLCLQEVTSGFGHLPGQPGEDQWQELAGALGQAFTLIDGIALERHEGAQIRRFGNAIATRLPVLHVARHALPCPADAGPTMPRMAIEAIVQAPFGPLRVVSTHLEYYSETQRIAQIDALRALHVEGCMRAAHPPTLGPEPTDGPFRPLAQTRATVICGDFNCKPDSKPKRLATVPFSHEAAALYDAWETAHGPTPQPPTFGVHDRTGWTEPAYACDFMLVSEPLKTRVTRVEVNSTTQASDHQPTLLELRDAE”, the protein production entry is “failed”.

Regarding “MGTIKIVTDSSITIEPELIKALDITVVPLSVMIDSKLYSDNDLKEEGHFLSLMKASKSLPKTSQPPVGLFAETYENLVKKGVTDIVAIHLSPALSGTIEASRQGAEIAEAPVTVLDSGFTDQAMKFQVVEAAKMAKAGASLNEILAAVQAIKSKTELYIGVSTLENLVKGGRIGRVTGVLSSLLNVKVVMALKNDELKTLVKGRGNKTFTKWLDSYLAKNSHRPIAEIAISYAGEASLALTLKERIAAYYNHSISVLETGSIIQTHTGEGAFAVMVRYE”, the protein production entry is listed as “not failed”.

For the sequence “MGTPAERWERARMFFDAKDYAAAARVLDGLVAQVPEQTGPRLLLARSYYHSAQLRRAEAELRVVVERDPVEHYARLMLGRTLERQGRQEEADAQLRIASALAGLEHHHHHH”, the protein production entry is listed as “failed”. Under “MGTSDEEIDRLLGKLTPRARALLLNGATTWRTRAEPAVELRELVMSDGPAGVRGEAWDERSTSLLLPSASALAATWDEALVEDLGGLLAAEARRKGVDVLLAPTLNLHRSPLGGRHFECLSEDPELTGRIGAALVRGIQAHGVAATAKHYVANDSETDRLTVDVRVGERALREVYLAPFEAAVAAGVRLVMAGYNAVNGTTMTANALLTDPLKSEWGFDGVVVSDWGAVRGTTGTARAGLDLAMPGPDGPWGEALARAVAEGAVPEPAVDDKARRLLRLAAWLGALGGRDVSRSPVPGRPADSPGAEGADGGAGAGPSSGAEGLPGRGPAHGAKPSGPRPRRAGDGRALARRAVAAGAVLLANKDVLPLDPEHLGTVAVIGAHAARTRTQGGGSAGVFPRGEVSVLDGIRAELRGRARVVHVPGPRPDGPAPPLDPDTCTDPRSGLPGVLLRMLDADGRELYAERRRGGRLLEPRLVPGAHTVEIRARLCPRTGGSWSLGVAGFGRMSLTTDGRTLLEGDFPPSTDDPAVMHVNPPAQYATADLTAGRDTLLVARRELAPGTGRATVLVAAPPAPDVTASLAEAVRAAGAADAAVVVVGTTEHGESEGYDRTDLALGATQDALVRAVAAANPRTVAVVNSGGPVELPWREQAGAVLLAWFPGQEGGGGLADVLFGHAEPGGRLPTTWPAVLADAPVTRTRPDGGRLDYDEGLHLGHRGWLRHHRTPAYWFGHGLGYTTWRYEELTVPPVTRAGDGLTVRVRVRNTGARAGREVVQVYLARPASALDRPARWLAGYTAVRARPGETVTATVRVPARALRHWSVAEHAWRTEAGPCRVLAGRSAGDVPLAAEVEVVPTASA” stands “failed”; under “MGVATMVTDKYQKCIDACNRCSQACYECFKACLNEPDVNARRTCISILFECAQMCQMSSALMSMDAQFAIDHCKLCSVICDKCAQECSMFQDPHCQKCANECRTCSNECRMMSGMLEHHHHHH”, “not failed”. With “MGVLAEVYEMLNTCNRCGFCHTACKTYKVDGAETMVSRGRVQLIKAVADGVIEADADYEDSINSCLLCGECAVACPSGVSAKELVMAARRDLKLRHGLEHHHHHH” the entry was “not failed”; with “MGVLAEVYEMLNTCNRCGFCHTACKTYKVDGAETMVSRGRVQLIKAVADGVIEADADYEDSINSCLLCGECAVACPSGVSAKELVMAARRDLKLRHGVKPFVKSYALKTLANPNKLERAFKLFGGLGKNVLNKVDGMDYFRGVDIKGMNVAKVPFLNQVPERILVAQPKHKVAFYVGCFLNFSLDDTAHSVVKVLTKNDCEVIIPKEQVCCGLPQYAYGDFETAKVNARKTIDTFMAKDVEAIITACGSCAAMLKEDYLKLFADDAAYLPRVKSFCAKVKEFSEYMAEIGVDESKFHNSTPVKVTYHDPCHMVRGIKVTAQPRQMLKSLPRVEYIEMFEANRCCGASGLVQAFYHEMSTKVTREKAKNIQDSGAEVVATSCPACIMRLQGGVSMAGQKQKVMHVADLMAKAYEN”, “failed”.

In the case of “MGVRLAVRCFVVDGVLIDTGAKSMENEFTSFFQQQDIDQVVITHFHEDHTGCAAFLQRSMGLPIYMNEPMIEYCRQKADYPLYRKIFWGKRDPFAAKPIGATFSSRNATWDVIPTPGHAIDHVVFLNRETGQLFSGDLYCQEKTKVILREEDIPTIIASLQHVLTYDFGDVFCAHAGYLPLEHHHHHH”, the protein production result is on record as “failed”. Under “MGVVLIDGSTVRSFVDDEEQFKKSVDERFAALDLNKDGVLSRSELRKAFESMRLLESHFGVDVVTPQDELTNLYDSIFEKFDTDQSGSVDLEEFRSEMKKIVLAIADGLGSCPITMVLDDDDDNFLKKAADLEASKLEKASS” stands “failed”; under “MGVVRPAEQQSRIAARRVALLEKVDYRLAETPAEREAIYRLRYRAYLKEGAIDANSSGIVTDRYDDLPNSWIFGVFYEGELSSSLRITVASPDHHDCPSMDVFPDFLQPWLAEGKVIVDPTRFVADPTSANRLPELPYLTLRLAYVSCEYFNADIGLASVRTEHQAFYRRVMMRS”, “failed”. Under “MGWQTLKQQSVPARKRLLYLHIPFCATHCTFCGFYQNKLRDDSTATYTRYLLQELAMEADSPLHQSAPIHAVYFGGGTPTALAADELSQIIRAIRTSLPLAPDCEITVEGRAMDFDDERIDACLDAGANRFSIGIQTFDTRIRQRMARTSDKQQSIRFLERLCGRDRAAVVCDLMFGLPGQTPEIWREDLAIVSDLPLDGVDLYALNLLPTTPLAKAAENQRVALPDVVARRDFYRTGAAFLADSGWHQLSNSHWARTTRERNLYNLLIKQGADCLAMGSGAGGNINGQAYMMERSLERYYQQIDQGQKPIMMMTPASSTGPWQHQLQAGIEVGRIKLPQLTQHARELQPLLSQWHQAGLTCDDSTCLRLTNDGRFWANNLMQALQQIIPQLNAEEHAHLEHHHHHH” stands “failed”. Under “MGYFYVLLAAFLWGLIGPLSRMAFQEGLTPLTVAFYRALLSWIFFLAHAARTGGLRVAPRDLPVFPLFGLLGVALFYGAYQLAVLYGGAALASVLLYTAPAWVALLSWAFLREPPTARSWGAVALTLLGVGLLGLGGGSEVRFGVRAFLFGLASGFFYALHYLLGKLYLGRYATPTFFAYALPVAALALAPWAEFGPLTPRALGALLALSLFSTYGAYLAFYAGLRRLPATVASVVATLEPVVAVVLAYLLFGEVLSPLGYFGALLVILAVLLAVRR” stands “failed”. For “MGYNTIPAGKDLPNDIYVAIEIPANASPIKYEIDKDMDALLVDRFMATPMFYPANYGYINNTLADDGDALDVLVITPYPVAPGSVIRARPVGVLKMSDEAGGDEKLLAVPHEKLTQLYNDIHDIDDVPQLLKDQIVHFFEHYKDLEKGKWVKVEGWENADAARAAIVKSAAAYKG”, the protein production result is “not failed”.

In the case of “MGYRNLQDCVFDLEARGDLVRIDVETDPNIEIGAIQRRVYQAGGPALLFTRVKGCRFPMLGNLFGTMARTKFIFRDTLDDIRRLVELKINPTAVLKNPKEYAGAPLAALRLLPRQVSRGPILGHRTTIAELPQLKSWPMDGGPFVTLPQVYSESPKRPGFRFSNLGMYRVQLAGNDYRLNEEVGVHYQIHRGIGVHHAEAIERGEPLRVNIFVGGAPSMTVAAVMPLPEGLPELSFAGLLAGHRLAMVCRRGELPMPAEADFVITGTIDPNKTLPEGPFGDHLGYYSLAHPFPVLRVENVWHRDDAIWPFTSVGRPPQEDTTFGAFIHELTGALIPEVLPGVKGVHAVDAAGVHPLLLAVGSERYVPYEAERVPRELLTIASAILGNGQLSLAKYLFITPNEDNPPDIHHIDEFLTFILERADWRRDLHFHTRTTIDTLDYSGSGLNEGSKVIVAAAGPKRRDLPTEVPGGLRLPDGFTTPHVCLPGILAVTGPAFPGYGDNGAPDMERFCASFAPDDPINRFPLVVIVDDSAFTSRTLNNFLWVTFTRSNPAADIHGIGSSVRCKHWGCGGALVIDARVKPHHAPPLLDVPEIERRVDALGAPGGPLRGII”, the protein production result is “failed”.

These data come from a protein production outcome set (Wang et al. 2014).
